Assays:
[1] = biological target: huCTLA4 (Homo sapiens, UniProt P16410); assay: Flow binding to CHO cells stably expressing CTLA4; set-up: huCTLA4 and huPD-L1, full-length mammalian surface expression constructs were generated; expressed in transfected cells; host or cells: CHO cells, lentiviral transduction, sorted to >98% purity; conditions: CHO cells stably expressing CTLA4
Experimental: (§1) Binding of selected immunomodulatory fusion proteins to cognate binding partners was assessed. […] Cells were sorted in a Bio-Rad S3 Cell Sorter (Bio-Rad Corp., USA) to >98% purity. Jurkat/IL2 reporter cells, which endogenously express CD28, were used to detect binding to CD28.
(§2) For staining and analysis by flow cytometry, 100,000 cells of appropriate transfected cells were plated in 96-well round bottom plates. Cells were spun down and resuspended in staining buffer (phosphate buffered saline (PBS), 1% bovine serum albumin (BSA), and 0.1% sodium azide) for 20 minutes to block non-specific binding. […] Primary staining was performed on ice for 45 minutes, before washing cells in staining buffer twice. Phycoerythrin (PE)-conjugated anti-human Fc (Jackson ImmunoResearch, USA) was diluted 1:150, added to cells and incubated another 30 minutes on ice. Cells were then washed twice with 150 μL/well stain buffer, fixed in 2% formaldehyde/PBS, and analyzed on Intellicyt flow cytometer (Intellicyt Corp., USA). PE Mean Fluorescence Intensity (MFI) was calculated for each cell type with FlowJo Version 10 software (FlowJo LLC, USA).
(§3) Binding assays were carried out to assess the specificity and affinity of multivalent proteins to cell-expressed CTLA-4, CD28, and PD-L1 counter structures.
(§4) The EC50 for binding also was determined.

[2] = biological target: huPD-L1 (Homo sapiens, UniProt Q9NZQ7); assay: Flow binding to CHO cells stably expressing PD-L1; set-up: huCTLA4 and huPD-L1, full-length mammalian surface expression constructs were generated; expressed in transfected cells; host or cells: CHO cells, lentiviral transduction, sorted to >98% purity; conditions: CHO cells stably expressing PD-L1
Chain of huPD-L1 (Q9NZQ7 19-290): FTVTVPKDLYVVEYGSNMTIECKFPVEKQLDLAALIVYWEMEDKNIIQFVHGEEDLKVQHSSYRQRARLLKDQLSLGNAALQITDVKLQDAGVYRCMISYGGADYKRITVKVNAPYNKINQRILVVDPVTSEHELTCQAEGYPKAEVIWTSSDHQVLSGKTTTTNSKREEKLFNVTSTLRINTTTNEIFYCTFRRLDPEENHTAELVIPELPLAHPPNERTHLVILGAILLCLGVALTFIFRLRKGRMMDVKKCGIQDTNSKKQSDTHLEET
Experimental: as §1, §2, §3, §4

[3] = biological target: CD28 (Homo sapiens, UniProt P10747); assay: Jurkat/IL2 + CHO/OKT3 +/- PD-L1 reporter assay: PD-L1-dependent CD28 costimulation; format: cell-based; set-up: host or cells: Jurkat cells expressing an IL-2-luciferase reporter; conditions: Jurkat/IL2 + CHO/OKT3/PD-L1
Experimental: Jurkat cells were then plated at 50 μL/well for a total of 100,000 cells per well.
To each well, 25 μL of test protein was added to the Jurkat cells. […] The Jurkat cells with test or control proteins were incubated for 15 minutes at room temperature. CHO-derived artificial antigen presenting cells (aAPC) displaying transduced cell surface anti-CD3 single chain Fv (OKT3) (i.e., no PD-L1), or OKT3 and PD-L1 (i.e., +PD-L1), were brought to 0.8×10^6 cells/mL, and 25 μL of cells were added to each well, bringing the final volume of each well to 100 μL. […] Jurkat cells and CHO cells were incubated for 5 hours at 37 degrees Celsius in a humidified 5% CO2 incubation chamber. Plates were then removed from the incubator and acclimated to room temperature for 15 minutes. 100 μL of a cell lysis and luciferase substrate solution (BioGlo luciferase reagent, Promega) were added to each well and the plates were incubated on an orbital shaker for 10 minutes. Luminescence was measured with a 1 second per well integration time using a BioTek Cytation luminometer, and a relative luminescence value (RLU) was determined for each test sample.

Chain of huCTLA4 (P16410 36-223): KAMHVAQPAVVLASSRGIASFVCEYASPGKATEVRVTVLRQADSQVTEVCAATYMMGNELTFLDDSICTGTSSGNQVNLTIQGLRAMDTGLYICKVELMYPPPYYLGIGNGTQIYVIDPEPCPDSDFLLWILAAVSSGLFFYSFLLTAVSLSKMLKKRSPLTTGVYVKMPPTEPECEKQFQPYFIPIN

B1: E35D/M38I/M43V/M47V/N48R/L85Q (protein)
chain: VIHVTKEVKEVATLSCGHNVSVEELAQTRIYWQKDKKTVLTMVSGDVRIWPEYKNRTIFDITNNLSIVILALRPSDEGTYECVVQKYEKDAFKREHLAEVTLSVKAD
CTLA4 MFI at 33.3 nM ([1]; Table E4, 33.3 nM variant CD80 IgV-Fc): 203938

B2: H18Y/M47L/V68M/A71G (protein)
chain: VIHVTKEVKEVATLSCGYNVSVEELAQTRIYWQKEKKMVLTMMSGDLNIWPEYKNRTIFDITNNLSIMILGLRPSDEGTYECVVLKYEKDAFKREHLAEVTLSVKAD
PD-L1 MFI at 33.3 nM ([2]; Table E20, 33.3 nM): 28478

B3: E35D/D46V (protein)
chain: VIHVTKEVKEVATLSCGHNVSVEELAQTRIYWQKDKKMVLTMMSGVMNIWPEYKNRTIFDITNNLSIVILALRPSDEGTYECVVLKYEKDAFKREHLAEVTLSVKAD
PD-L1 MFI at 33.3 nM ([2]; Table E19, 33.3 nM): 3971

B4: D46V/M47L (protein)
chain: VIHVTKEVKEVATLSCGHNVSVEELAQTRIYWQKEKKMVLTMMSGVLNIWPEYKNRTIFDITNNLSIVILALRPSDEGTYECVVLKYEKDAFKREHLAEVTLSVKAD
CTLA4 MFI at 33.3 nM ([1]; Table E19, 33.3 nM): 49711

B5: E35D/M47V/V68M (protein)
chain: VIHVTKEVKEVATLSCGHNVSVEELAQTRIYWQKDKKMVLTMMSGDVNIWPEYKNRTIFDITNNLSIMILALRPSDEGTYECVVLKYEKDAFKREHLAEVTLSVKAD
Relative Luciferase Units (RLU), CD80 Conc 5.0 nM ([3]; Table E21, CD80 Conc 5.0 nM): 841 RLU

B6: H18Y/A26P/E35D/M47T/V68M/A71G (protein)
chain: VIHVTKEVKEVATLSCGYNVSVEELPQTRIYWQKDKKMVLTMMSGDINIWPEYKNRTIFDITNNLSIMILGLRPSDEGTYECVVLKYEKDAFKREHLAEVTLSVKAD
Fold Increase over WT CD80-IgV-Fe ([3]; Table E24, 5.0 nM): 4.5
Relative Luciferase Units (RLU), CD80 Conc 5.0 nM ([3]; Table E24, 5.0 nM): 761 RLU

B7: H18Y/E35D/M47V/N48K (protein)
chain: VIHVTKEVKEVATLSCGYNVSVEELAQTRIYWQKDKKMVLTMMSGDVKIWPEYKNRTIFDITNNLSIVILALRPSDEGTYECVVLKYEKDAFKREHLAEVTLSVKAD
Relative Luciferase Units (RLU), CD80 Cone 5.0 nM ([3]; Table E12, 5.0 nM): 2146 RLU
PD-L1 MFI at 33.3 nM ([2]; Table E10, 33.3 nM): 6462

B8: M47V/N48K/V68M/K89N (protein)
chain: VIHVTKEVKEVATLSCGHNVSVEELAQTRIYWQKEKKMVLTMMSGDVKIWPEYKNRTIFDITNNLSIMILALRPSDEGTYECVVLKYENDAFKREHLAEVTLSVKAD
Relative Luciferase Units (RLU), CD80 Conc 5.0 nM ([3]; Table E21, CD80 Conc 5.0 nM): 671 RLU
PD-L1 MFI at 33.3 nM ([2]; Table E19, 33.3 nM): 23666

B9: T13R/Q27L/Q33L/E35D/T41S/M47V/N48KN68M/L85M (protein)
chain: VIHVTKEVKEVARLSCGHNVSVEELALTRIYWLKDKKMVLSMMSGDVKIWPEYKNRTIFDITNNLSIMILALRPSDEGTYECVVMKYEKDAFKREHLAEVTLSVKAD
Fold Increase over WT CD80-IgV-Fe ([3]; Table E13, 5.0 nM): 0.4
Relative Luciferase Units (RLU), CD80 Cone 5.0 nM ([3]; Table E13, 5.0 nM): 170 RLU

B10: H18Y/E35D/M47L/A71G (protein)
chain: VIHVTKEVKEVATLSCGYNVSVEELAQTRIYWQKDKKMVLTMMSGDLNIWPEYKNRTIFDITNNLSIVILGLRPSDEGTYECVVLKYEKDAFKREHLAEVTLSVKAD
Relative Luciferase Units (RLU), CD80 Conc 5.0 nM ([3]; Table E22, CD80 Conc 5.0 nM): 1387 RLU

B11: H181/A26P/E35D/M47V/V68M/A71G (protein)
chain: VIHVTKEVKEVATLSCGINVSVEELPQTRIYWQKDKKMVLTMMSGDVNIWPEYKNRTIFDITNNLSIMILGLRPSDEGTYECVVLKYEKDAFKREHLAEVTLSVKAD
Fold Increase over WT CD80-IgV-Fe ([3]; Table E24, 5.0 nM): 5.4
Relative Luciferase Units (RLU), CD80 Conc 5.0 nM ([3]; Table E24, 5.0 nM): 916 RLU

B12: D46V/M47L/V68M/L85Q (protein)
chain: VIHVTKEVKEVATLSCGHNVSVEELAQTRIYWQKEKKMVLTMMSGVLNIWPEYKNRTIFDITNNLSIMILALRPSDEGTYECVVQKYEKDAFKREHLAEVTLSVKAD
Relative Luciferase Units (RLU), CD80 Conc 5.0 nM ([3]; Table E21, CD80 Conc 5.0 nM): 654 RLU

B13: E35D/D46E/M47L/V68M/A71G/Y87C/K93R (protein, UniProt P33681 35-288, looked up, variant E35D D46E M47L V68M A71G Y87C K93R)
T-lymphocyte activation …: VIHVTKEVKEVATLSCGHNVSVEELAQTRIYWQKDKKMVLTMMSGELNIWPEYKNRTIFDITNNLSIMILGLRPSDEGTYECVVLKCEKDAFRREHLAEVTLSVKADFPTPSISDFEIPTSNIRRIICSTSGGFPEPHLSWLENGEELNAINTTVSQDPETELYAVSSKLDFNMTTNHSFMCLIKYGHLRVNQTFNWNTTKQEHFPDNLLPSWAITLISVNGIFVICCLTYCFAPRCRERRRNERLRRESVRPV
Relative Luciferase Units (RLU), CD80 Cone 5.0 nM ([3]; Table E13, 5.0 nM): 1198 RLU

B14: T13R/E35D/M47L/V68M (protein, UniProt P33681 35-288, looked up, variant T13R E35D M47L V68M)
T-lymphocyte activation …: VIHVTKEVKEVARLSCGHNVSVEELAQTRIYWQKDKKMVLTMMSGDLNIWPEYKNRTIFDITNNLSIMILALRPSDEGTYECVVLKYEKDAFKREHLAEVTLSVKADFPTPSISDFEIPTSNIRRIICSTSGGFPEPHLSWLENGEELNAINTTVSQDPETELYAVSSKLDFNMTTNHSFMCLIKYGHLRVNQTFNWNTTKQEHFPDNLLPSWAITLISVNGIFVICCLTYCFAPRCRERRRNERLRRESVRPV
Fold Increase over WT CD80-IgV-Fe ([3]; Table E13, 5.0 nM): 2.6
Relative Luciferase Units (RLU), CD80 Cone 5.0 nM ([3]; Table E13, 5.0 nM): 1021 RLU

B15: E35D/M47V/N48K/V68M/L85M (protein, UniProt P33681 35-288, looked up, variant E35D M47V N48K V68M L85M)
T-lymphocyte activation …: VIHVTKEVKEVATLSCGHNVSVEELAQTRIYWQKDKKMVLTMMSGDVKIWPEYKNRTIFDITNNLSIMILALRPSDEGTYECVVMKYEKDAFKREHLAEVTLSVKADFPTPSISDFEIPTSNIRRIICSTSGGFPEPHLSWLENGEELNAINTTVSQDPETELYAVSSKLDFNMTTNHSFMCLIKYGHLRVNQTFNWNTTKQEHFPDNLLPSWAITLISVNGIFVICCLTYCFAPRCRERRRNERLRRESVRPV
Fold Increase over WT CD80-IgV-Fe ([3]; Table E13, 5.0 nM): 3.0
Relative Luciferase Units (RLU), CD80 Cone 5.0 nM ([3]; Table E13, 5.0 nM): 1203 RLU

B16: H18V/A26N/E35D/M47V/V68M/A71G (protein, UniProt P33681 35-288, looked up, variant H18V A26N E35D M47V V68M A71G)
T-lymphocyte activation …: VIHVTKEVKEVATLSCGVNVSVEELNQTRIYWQKDKKMVLTMMSGDVNIWPEYKNRTIFDITNNLSIMILGLRPSDEGTYECVVLKYEKDAFKREHLAEVTLSVKADFPTPSISDFEIPTSNIRRIICSTSGGFPEPHLSWLENGEELNAINTTVSQDPETELYAVSSKLDFNMTTNHSFMCLIKYGHLRVNQTFNWNTTKQEHFPDNLLPSWAITLISVNGIFVICCLTYCFAPRCRERRRNERLRRESVRPV
Relative Luciferase Units (RLU), CD80 Conc 5.0 nM ([3]; Table E24, 5.0 nM): 985 RLU
PD-L1 MFI at 33.3 nM ([2]; Table E23, CD80 IgV-Fc (inert) at 33.3 nM): 68165

B17: V22D/E24D/E35D/M47L/V68M/L85M/D90G (protein)
chain: VIHVTKEVKEVATLSCGHNVSDEDLAQTRIYWQKDKKMVLTMMSGDLNIWPEYKNRTIFDITNNLSIMILALRPSDEGTYECVVMKYEKGAFKREHLAEVTLSVKADFPTPSISDFETPTSNIRRIICSTSGGFPEPHLSWLENGEELNAINTTVSQDPETELYAVSSKLDFNMTTNHSFMCLIKYGHLRVNQTFNWNTTKQEHFPDN
modifications: CD80 v384 ECD
Relative Luciferase Units (RLU), CD80 Cone 5.0 nM ([3]; Table E13, 5.0 nM): 963 RLU
PD-L1 MFI at 33.3 nM ([2]; Table E11, 33.3 nM): 19047

From patent publication US20220177587A1, “METHODS AND USES OF VARIANT CD80 FUSION PROTEINS AND RELATED CONSTRUCTS” (Alpine Immune Sciences, Inc., priority 2018, published 2022)
